From patent US20100329980A1 (GENE TECHNO SCIENCE, published 2010)
One block for each binder: values may come before it. Ends that are not written are not given here.

Legend:
human α4 integrin [1] = biological target: T1, human α4 integrin (human, UniProt P13612 34-1032); test: hybridoma screening on transfected CHO-K1 cells
T1 construct: whole, on cells; also called Human α4/CHO-K1 cells; CHO K1 cells expressing human α4 integrin
T1 sequence (looked up): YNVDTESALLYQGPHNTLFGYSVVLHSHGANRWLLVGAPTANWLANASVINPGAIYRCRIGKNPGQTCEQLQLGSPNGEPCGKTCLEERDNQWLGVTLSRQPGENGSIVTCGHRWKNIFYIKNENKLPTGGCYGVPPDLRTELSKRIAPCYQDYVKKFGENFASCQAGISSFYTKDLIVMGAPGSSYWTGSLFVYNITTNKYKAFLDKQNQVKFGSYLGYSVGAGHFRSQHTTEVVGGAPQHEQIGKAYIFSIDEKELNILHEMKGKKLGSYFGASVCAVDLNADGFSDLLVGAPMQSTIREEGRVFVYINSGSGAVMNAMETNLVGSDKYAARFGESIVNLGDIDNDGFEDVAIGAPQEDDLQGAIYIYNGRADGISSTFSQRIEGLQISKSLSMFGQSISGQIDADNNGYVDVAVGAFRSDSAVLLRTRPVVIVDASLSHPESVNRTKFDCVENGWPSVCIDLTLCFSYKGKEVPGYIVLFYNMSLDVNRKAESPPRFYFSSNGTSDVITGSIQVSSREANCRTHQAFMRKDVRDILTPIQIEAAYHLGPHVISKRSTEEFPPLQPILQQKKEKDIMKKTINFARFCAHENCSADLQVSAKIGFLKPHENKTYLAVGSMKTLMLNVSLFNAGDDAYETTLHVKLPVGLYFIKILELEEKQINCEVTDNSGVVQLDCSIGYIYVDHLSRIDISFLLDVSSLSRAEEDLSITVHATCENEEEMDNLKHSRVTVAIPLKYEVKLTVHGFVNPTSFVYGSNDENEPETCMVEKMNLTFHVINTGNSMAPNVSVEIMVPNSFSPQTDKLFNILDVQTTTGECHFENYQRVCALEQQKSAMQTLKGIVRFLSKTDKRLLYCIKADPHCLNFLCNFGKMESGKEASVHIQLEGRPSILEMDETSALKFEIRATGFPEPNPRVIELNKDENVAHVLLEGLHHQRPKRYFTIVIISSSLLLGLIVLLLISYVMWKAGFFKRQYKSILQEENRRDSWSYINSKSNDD

human α4 integrin [2] = biological target: T1, human α4 integrin; test: FACS, FITC-labeled anti-mouse IgG secondary
Procedure: Whether the anti-human α9 integrin antibodies were usable for FACS was examined using Human α9/CHO-K1 cells, CHO-K1 cells and human neutrophils endogenously expressing the α9 integrin. In human neutrophils, FACS analysis was conducted at the cell count of 1.0×10⁵ and antibodies were reacted on ice. Non-specific reaction with the Fc receptor was blocked with 50% goat serum. FITC-labeled anti-mouse IgG antibody was used as a secondary antibody. As a result (see FIGS. 20a, 20b and 20c), all of the anti-human α9 integrin antibodies could detect the α9 integrin on Human α9/CHO-K1 and human neutrophils. None of the antibodies reacted with Human α4/CHO-K1 cells (see FIGS. 20a, 20b and 20c).

[3] = biological target: T2, Human α9 integrin sequence KSPGAVFKCRVHTNPDRR (SEQ ID NO: 78) (human, also: coupled to cellulose membrane via C6-spacer and 2 βAla, end not given here); test: peptide spot membrane, peroxidase-labelled antibody, ECL
T2 construct: Spots were twelve-residue peptides offset by three residues
T2 peptide: KSPGAVFKCRVHTNPDRR
Procedure: (§1) Twelve-residue polypeptides, starting from N-terminal of human α9 integrin and every three residues thereafter (i.e., amino acid residues 1-12, 4-15, 7-18, and so forth) were prepared and coupled to a cellulose membrane via C6-spacer and 2 βAla residues at 5 nmol/spot. The membrane was blocked with a blocking buffer (milk/0.05% Tween20 in PBS) and reacted with 10 ml of solution containing 1.0 μg/ml of each of the anti-human α9 integrin monoclonal antibodies (i.e., 1K11, 21C5, 24I11 and 25 B6, respectively) labeled with peroxidase for three hours at room temperature. After washing with T-TBS, the membrane was reacted with enhanced chemiluminescence (ECL) detecting reagent for 1 minute at room temperature. The luminescence emitted as a result of the enzymatic reaction is measured and epitopes of the antibodies were determined based on the luminescence intensities. As a control, Y9A2 (see Wang et al., 1996, Am J Respir Cell Mol Biol 15, 664-672), a commercially available monoclonal antibody against human α9 integrin, was used.

[4] = biological target: T3, Human α9 integrin sequence … (SEQ ID NO: 79) (human, coupled to a cellulose membrane via C6-spacer and 2 βAla residues); test: as above
T3 construct: Spots were twelve-residue peptides offset by three residues
Procedure: as §1

[5] = biological target: T4, Human α9 integrin sequence CAHRWKNIYYEADHI (SEQ ID NO: 80) (human, also: coupled to cellulose membrane via C6-spacer and 2 βAla, end not given here); test: as above
T4 construct: Spots were twelve-residue peptides offset by three residues
T4 peptide: CAHRWKNIYYEADHI
Procedure: as §1

[6] = biological target: T5, Human α9 integrin sequence GFCYIIPSNLQAKGRTLI (SEQ ID NO: 81) (human, also: coupled to cellulose membrane via C6-spacer and 2 βAla, end not given here); test: as above
T5 construct: Spots were twelve-residue peptides offset by three residues
T5 peptide: GFCYIIPSNLQAKGRTLI
Procedure: as §1

[7] = biological target: T6, Human α9 integrin sequence VMGAPGSFYWAGTIKVLN (SEQ ID NO: 82) (human, also: coupled to cellulose membrane via C6-spacer and 2 βAla, end not given here); test: as above
T6 construct: Spots were twelve-residue peptides offset by three residues
T6 peptide: VMGAPGSFYWAGTIKVLN
Procedure: as §1

[8] = biological target: T7, Human α9 integrin sequence VIMNRRYTYLGYAVT (SEQ ID NO: 83) (human, also: coupled to cellulose membrane via C6-spacer and 2 βAla, end not given here); test: as above
T7 construct: Spots were twelve-residue peptides offset by three residues
T7 peptide: VIMNRRYTYLGYAVT
Procedure: as §1

[9] = biological target: T8, Human α9 integrin sequence … (SEQ ID NO: 84) (human, coupled to a cellulose membrane via C6-spacer and 2 βAla residues); test: as above
T8 construct: Spots were twelve-residue peptides offset by three residues
Procedure: as §1

[10] = biological target: T9, Human α9 integrin sequence QYSMKLSGQKINPVLRMFGQSISG (SEQ ID NO: 85) (human, coupled to a cellulose membrane via C6-spacer and 2 βAla residues); test: as above
T9 construct: Spots were twelve-residue peptides offset by three residues
T9 peptide: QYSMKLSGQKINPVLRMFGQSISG
Procedure: as §1

[11] = biological target: T10, Human α9 integrin sequence … (SEQ ID NO: 86) (human, coupled to a cellulose membrane via C6-spacer and 2 βAla residues); test: as above
T10 construct: Spots were twelve-residue peptides offset by three residues
Procedure: as §1

[12] = biological target: T11, Human α9 integrin sequence RHYVAHVKRRVQDVISPI (SEQ ID NO: 87) (human, also: coupled to cellulose membrane via C6-spacer and 2 βAla, end not given here); test: as above
T11 construct: Spots were twelve-residue peptides offset by three residues
T11 peptide: RHYVAHVKRRVQDVISPI
Procedure: as §1

[13] = biological target: T12, Human α9 integrin sequence YLALGAVKNISL (SEQ ID NO: 89) (human, also: coupled to cellulose membrane via C6-spacer and 2 βAla (end not given here)); test: as above
T12 construct: Spots were twelve-residue peptides offset by three residues
T12 peptide: YLALGAVKNISL
Procedure: as §1

[14] = biological target: T13, Human α9 integrin sequence CSVGFPFMRSKSKYEFSV (SEQ ID NO: 90) (human, also: coupled to cellulose membrane via C6-spacer and 2 βAla, end not given here); test: as above
T13 construct: Spots were twelve-residue peptides offset by three residues
T13 peptide: CSVGFPFMRSKSKYEFSV
Procedure: as §1

[15] = biological target: T14, Human α9 integrin sequence SSSVIQFMSRAKVKVDPALRV (SEQ ID NO: 91) (human, coupled to a cellulose membrane via C6-spacer and 2 βAla residues); test: as above
T14 construct: Spots were twelve-residue peptides offset by three residues
T14 peptide: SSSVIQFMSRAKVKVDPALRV
Procedure: as §1

B1: 21C5 mouse anti-human α9 integrin monoclonal antibody (FERM BP-10511) (antibody, mouse IgG1, V domains shown)
VH: VQLQESGGGLVKPGGSLKLSCAASGFTFSDYYMYWVRQTPEKRLEWVATISDGGNYTYYPDSVKGRFTISRDNAKNNLYLQMSSLKSEDTAMYYCARDRDGSSLFAYWGQGTTVTVSS
VL: KFMSTSVGDRVSITCKASQDVNIAVAWYQQRPGQSPKLLIYWASTRHTGVPDRFTGSGSGTDYTLTISSVQAEDLALYYCQQHYNTPWTFGGGTKLEIKR
notes: Mouse IgG1 from hybridoma; cloned with degenerate primers
binding result (human α4 integrin [1]): no binding

B2: 28S1 mouse anti-human α9 integrin monoclonal antibody (FERM BP-10832) (antibody, mouse IgG1, V domains shown)
VH: VKLQESGPGLVAPSQSLSITCTVSGFSLTGYGVNWVRQPPGKGLEWLGMIWGDGITEYNSALKSRLSISKDNSKSQVFLKMNSLQTDDTARYYCARDASSGYGFAYWGQGTTVTVSS
VL: YIVLTQSPAIMSASLGERVTMTCTASSSVSSSYLHWYQQKPGSSPKLWIYSTSNLASGVPARFSGSGSGTSYSLTISSMEAEDAATYYCHQYHRSPYTFGGGTKLEIKR
notes: Mouse IgG1 from hybridoma
binding result (human α4 integrin [2]): no binding

Other lines, results leading:

binding result (human α4 integrin [1]): no binding
binding result [3]: binds
binding result [4]: binds
binding result [5]: binds
binding result [6]: binds
binding result [7]: binds
binding result [8]: binds
binding result [9]: binds
binding result [10]: binds
binding result [11]: binds
binding result [12]: binds
binding result [13]: binds
binding result [14]: binds
binding result [15]: binds
B3: 1K11 mouse anti-human α9 integrin monoclonal antibody (FERM BP-10510) (antibody, mouse IgG1, V domains shown)
VH: VQLQESGPELVKPGASVKIPCKASGYTFTDYNMDWVKQSHGKSLEWIGDINPNNGGTIYNQKFQGKATLTVDKSSSTAYMELRSLTSEDTAVYYCARSGVISTDYWGQGTTVTVSS
VL: DIQMTQSPPSLSASLGERVSLTCRASQEISGYLIWLQQKPDGTIQRLIYAASTLDSGVPKRFSGSRSGSDYSLTISSLESEDFADYYCLQYANYPPTFGGGTKLEIKR
notes: Mouse IgG1 from hybridoma

binding result (human α4 integrin [2]): no binding
binding result [3]: binds
binding result [4]: binds
binding result [5]: binds
binding result [6]: binds
binding result [7]: binds
binding result [8]: binds
binding result [9]: binds
binding result [12]: binds
binding result [14]: binds
binding result [15]: binds
B4: 24I11 mouse anti-human α9 integrin monoclonal antibody (FERM BP-10512) (antibody, mouse IgG1, V domains shown)
VH: EVQLQQSGAELVKPGASVKLSCTASGFNIKDTYVHWVKQRPEQGLEWIGNIDPANGNTKYDPKFQGKATITADTSSNTAYLHLSSLTSEDTAVYYCARWLRHFYYAMDYWGQGTSVTVSS
VL: DIQMTQSPASLAASVGETVTITCRASENIYYSLAWYQQKQGKSPQLLIYNANSLEDGVPSRFSGSGSGTQYSMKINSMQPEDTATYFCKQAYDVPYTFGGGTKLEIK
notes: Mouse IgG1/kappa from hybridoma; also called mouse 24I11
